Source: PMC11088876 (2024)

Tests used:
[1] = molecular target: T1, Recombinant human ActRIIB-Fc (human, UniProt Q13705 19-137); test: SPR
T1 chain: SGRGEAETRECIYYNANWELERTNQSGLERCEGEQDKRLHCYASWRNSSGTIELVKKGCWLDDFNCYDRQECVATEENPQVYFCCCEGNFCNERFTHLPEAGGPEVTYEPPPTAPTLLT

[2] = molecular target: Recombinant human ActRIIA-Fc (human, UniProt P27037 20-135); test: SPR
Recombinant human ActRIIA-Fc, sequence (P27037 20-135): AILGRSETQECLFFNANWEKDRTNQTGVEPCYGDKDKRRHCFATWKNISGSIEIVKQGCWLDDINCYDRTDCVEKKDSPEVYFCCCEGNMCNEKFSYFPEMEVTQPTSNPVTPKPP

Kd [1]: 20 nM
Kd [2]: 5 nM
B1: Recombinant human ActE (bacterially derived, provided by R&D Systems) (ligand)
chain: TPTCEPATPLCCRRDHYVDFQELGWRDWILQPEGYQLNYCSGQCPPHLAGSPGIAASFHSAVFSLLKANNPWPASTSCCVPTARRPLSLLYLDHNGNVVKTDVPDMVVEACGCS
